Assay results published in the supplement of paper PMC9170038.

System: MS2 coat protein
Test: apparent KD of MS2 coat protein; higher = weaker reporter binding
Details: Eterna round: R107
Experimental: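 RNA-MaP round R107: designed RNA switches with theophylline, tryptophan, arginine or FMN aptamers are transcribed on-chip within common flanks. They are titrated with SNAP-549-labelled MS2 coat protein in RNA-MaP buffer (100 mM Tris pH 7.5, 80 mM KCl, 4 mM MgCl2), without ligand or with the indicated ligand. Median apparent KD per design.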

[1] = input ligand: theophylline 20 uM
[2] = input ligand: theophylline 2 mM
[3] = input ligand: tryptophan 2.4 mM

Sequence	apparent KD of MS2 coat protein (input ligand: arginine 13.2 mM) [nM]	apparent KD of MS2 coat protein (input ligand: none) [nM]	apparent KD of MS2 coat protein [1] [nM]	apparent KD of MS2 coat protein [2] [nM]	apparent KD of MS2 coat protein [3] [nM]
AAUAAUAUGAGGAUCACCCAUAUAAAAGAUACCAGAGUGAUGAUCCUCCCUUGGCAGCUUAACGCUGAUUGAUUACAAUCAGCGA	68.7	47.5	85	234	25.5
AAUAGCAUGAGGAUCACCCAUGUAAAAGAUACCAGAGUGAUGAUCCUCCCUUGGCAGCUUAACGCUGAUUGAUUACAAUCAGCGA	37	44.9	97.8	229	34.4
AAUCUGUCGGGUGAUACCAGCCUCGGCACGUCUCGUGCCGAACAUGAGGAUCACCCAUGUGGCCCUUGGCAGCACAUGACAAAUC [Teaton]	71.8		729		606
AAUGUAUGGCACAUGAGGAUCACCCAUGUGCGAGGACCGGUACGGCCGCCACUCGGUCCUGGAUUCUUAUUACUAUACAUUAAUG [XTryp A #16]	14		18.9	15.4	
AAUUAAACAUCGGCCGCCACUUACUCAUGAGGUAACAACAUGAGGAUCACCCAUGUUUGAGGAUCAAGGACCGGGAUGUAAUUUU [AstrosSSTryB#3]	28		40.3	35.1	
AAUUAUCAGUCGGCCGCCACUGACACAUGAGGAUCACCCAUGUAAUAUGGGUAAAAUUAACUGAACAGGACCGGGACAAAUGCUA [JR_SSTryptoB_Sub021]	135		472	803	
AAUUCCUCACAUGAGGAUCACCCAUGUGAAGGAGCGCGGAAUAACGCAGGUAGGUCGCACAUGGAAACCGCUGCGAAAGCAGCAA [MAT - Exclusion Arginine A - Mod of Eli - D26]	13.1	18.7	24	18.1	16.3
AAUUGGCACUGAAGGAGCGAGUUUACCUAAAUAACAUGAGGAUCACCCAUGUAAAAUGGGACUCAGGUAGGUCGCAGUUGUCAAA [Same State Arginine B GF 22]	48	57.6	76.4	63.7	61.5
AAUUGGGUUGGUGAGGUGGUUGGAGGCGAUACCAGCGUGGAAACACGCCCUUGGCAGCGCCAGGACAUGAGGAUCACCCAUGUAA [Praha]	32.1	260	486	713	205
AAUUGGGUUGGUGAGGUGGUUGGAGGCGAUACCAGCGUGGAAACACGCCCUUGGCAGCGCCAGGACAUGAGGAUCACCCAUGUUC [Ostrava]	19.6		36		22.1
ACACAUGACAGAAGGAGCGGAAUGAACACACAUGAGGAUCACCCAUGUUUUUUUUGUGUUUUCCAGGUAGGUCGCUGACAUGAGG [#20 Same State - Arginine B]	11.2	8.99	20.7	9.54	8.95
ACACAUGAGGAUCACCCAUGUGCGCUGGAAGGAGCGCAGAAUCAUGCAGGUAGGUCGCCAGUGCCCAUUACUAGAGGGAUAAGAG [Onriri]	44.5	75.8	101	102	64.6
ACACAUGAGGAUCACCCAUGUGCGCUGGAAGGAGCGCAGAAUCAUGCAGGUAGGUCGCCAGUGCCCUUCGAUAAAGGGAAAAGAG [Erbienes]	42.4	97.4	72	106	69.1
ACACAUGAGGAUCACCCAUGUGCGCUGGAAGGAGCGCAGAAUCAUGCAGGUAGGUCGCCAGUGCCCUUUGAUAAAGGGAAAAGAG [Reor]	52.2	43.3	99.7	76.9	64.3
ACAUGAAGAACAGCGGUGGGCGCGCUCGAUACCAGUACUUUGAAAUACCCUUGGCAGCGACAUGAGGAUCACCCAUGUGAGAUGA [XTheo A #3]	13	16.6	25.6	49.5	15.7
ACAUGAAGAACAGCGGUGGGCGCGCUCGAUACCAGUAUUUUAACCUACCCUUGGCAGCGACAUGAGGAUCACCCAUGUGAGAUGA [XTheo A #7]	18.5		26.8		16.6
ACAUGAAGAUUAAUCGUGGGCAUACUCGAUACCAGUAUUUUAACCUACCCUUGGCAGCGACAUGAGGAUCACCCAUGUGAGAUGA [XTheo A #8]	19.9		23.5		22.8
